Target: Jak2 (UniProt O60674)
Assay: phosphorylation enrichment, bacterial display (enrichment ratio); higher = better substrate or ligand; peptides without Tyr show the background
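Further: 11-residue human phosphosite peptides and single-mutation variants displayed on the E. coli surface, counted by deep sequencing, each peptide's frequency after selection divided by its frequency in the unselected input library; frequency after pTyr selection over input frequency; kinase dosed for 20-30% of maximal phosphorylation in three min.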

Jak2, sequence (O60674 whole entry, looked up): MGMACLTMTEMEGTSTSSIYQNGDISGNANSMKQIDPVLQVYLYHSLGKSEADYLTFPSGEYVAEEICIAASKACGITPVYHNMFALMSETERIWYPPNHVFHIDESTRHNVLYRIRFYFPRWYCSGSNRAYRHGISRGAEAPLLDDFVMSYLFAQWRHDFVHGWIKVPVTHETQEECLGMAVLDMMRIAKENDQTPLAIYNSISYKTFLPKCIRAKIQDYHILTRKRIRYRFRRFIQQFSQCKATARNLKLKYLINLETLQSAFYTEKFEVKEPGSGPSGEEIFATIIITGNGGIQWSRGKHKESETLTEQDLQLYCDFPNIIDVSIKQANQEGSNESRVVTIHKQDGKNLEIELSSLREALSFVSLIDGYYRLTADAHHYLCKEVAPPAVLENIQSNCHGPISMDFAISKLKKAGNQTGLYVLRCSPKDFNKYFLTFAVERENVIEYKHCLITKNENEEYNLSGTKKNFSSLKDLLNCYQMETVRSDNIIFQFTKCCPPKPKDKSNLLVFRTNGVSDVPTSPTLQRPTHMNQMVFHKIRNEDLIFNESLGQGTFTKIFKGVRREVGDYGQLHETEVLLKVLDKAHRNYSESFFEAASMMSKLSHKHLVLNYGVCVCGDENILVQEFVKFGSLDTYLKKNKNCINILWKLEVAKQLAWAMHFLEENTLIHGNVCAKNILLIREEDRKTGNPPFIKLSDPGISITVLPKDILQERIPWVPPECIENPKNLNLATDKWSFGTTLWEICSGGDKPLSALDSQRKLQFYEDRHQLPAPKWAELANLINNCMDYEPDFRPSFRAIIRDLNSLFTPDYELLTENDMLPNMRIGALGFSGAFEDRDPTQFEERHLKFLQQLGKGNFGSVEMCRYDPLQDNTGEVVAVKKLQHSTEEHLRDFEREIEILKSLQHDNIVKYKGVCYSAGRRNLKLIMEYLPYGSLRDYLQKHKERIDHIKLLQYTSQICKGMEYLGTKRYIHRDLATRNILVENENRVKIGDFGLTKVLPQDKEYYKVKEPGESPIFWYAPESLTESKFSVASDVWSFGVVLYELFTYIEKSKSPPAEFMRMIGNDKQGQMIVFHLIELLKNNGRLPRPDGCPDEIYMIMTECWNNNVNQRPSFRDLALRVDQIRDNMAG

Point of comparison: GAALAYGLDKS [HSPA9_Y230_A225G], phosphorylation enrichment 0.493. Against it:
- QGGRRYMMIVD [GAA_Y438] — higher, 0.568
- CCKNRYDKDKP [THAP1_Y14_G9C] — lower, 0.429
- RPASQYPHQVP [ADAM12_Y895_P893S] — higher, 0.56
- KMKGDYYCYLA [YWHAG_Y130_R132C] — higher, 3.93
- HESEIYGKVCY [CSRP3_Y57_C58G] — higher, 1.31
- EESREYDRLYE [PIK3R1_Y463_K459E] — higher, 1.45
- WNRDKYAATTT [TRIM39_Y439_G436R] — higher, 0.65
- CEAMEYLESKQ [BTK_Y511] — higher, 1.89
- VLAAQYTTVGR [SGSH_Y240_D235V] — lower, 0.426
- PLAVPYLDKPP [JMJD7_Y31] — higher, 0.742
- IPKTWYSAEQF [CD207_Y217] — higher, 0.681
- NTYEKYLGEEY [TF_Y669] — higher, 0.99
- RAIGFYSATSK [FAM120A_Y328_YF] — higher, 0.889
- SIIKDYFHRGT [GATM_Y203_A208T] — higher, 0.551
- RIVRKYKKVRF [F8_Y442_G439V] — higher, 0.65
- GLRFGYGVLGG [KRTAP20-2_Y15_YF] — higher, 0.562
- SVTFTYSPALN [TP53_Y126_C124Y_YF] — higher, 0.991
- IRCQGYSHRIL [MYO3B_Y993_R990C] — higher, 0.649
- IDSTPYGQWFE [RPS8_Y109_R110G_YF] — higher, 0.998
- SVQIVYKPVDL [MAPT_Y627] — higher, 0.891
- GSPPPYRRRKR [MBD1_Y403] — higher, 0.519
- EEGNPYFSSTR [MCCC2_Y520_A524T_YF] — higher, 0.823
- PPGRSYSPYDY [TNS1_Y793] — higher, 1.07
- VHNLNYYKKTT [FGFR3_Y647_D646N] — higher, 0.728
- APGDAYGDAGY [SYP_Y250] — higher, 0.765
- GDYLSYREFHS [ERBIN_Y1107] — higher, 1.54
- GGCQEYTGAPF [NAXD_Y85_YF] — higher, 0.817
- HSDFQYSQRSQ [PKP2_Y168_YF] — higher, 0.952
- GVFSRYFTTFD [CLCA1_Y661_YF] — higher, 1.15
- TSPKSYPSQKH [CAP2_Y316] — lower, 0.463
- PLDAEYFTLQI [TP53_Y327_G325A] — higher, 3.1
- VNYGAYINDFN [GLB1_Y488_K493N] — higher, 0.748

Tested on: c-Src
Assay: as above

Point of comparison: PPGRSYSPYDY [TNS1_Y793], phosphorylation enrichment 3.42. Against it:
- QGGRRYMMIVD [GAA_Y438] — lower, 0.403
- CCKNRYDKDKP [THAP1_Y14_G9C] — lower, 0.345
- RPASQYPHQVP [ADAM12_Y895_P893S] — lower, 0.459
- KMKGDYYCYLA [YWHAG_Y130_R132C] — lower, 1.78
- HESEIYGKVCY [CSRP3_Y57_C58G] — higher, 6.37
- EESREYDRLYE [PIK3R1_Y463_K459E] — lower, 0.714
- WNRDKYAATTT [TRIM39_Y439_G436R] — lower, 0.411
- CEAMEYLESKQ [BTK_Y511] — lower, 0.839
- VLAAQYTTVGR [SGSH_Y240_D235V] — lower, 0.445
- PLAVPYLDKPP [JMJD7_Y31] — lower, 0.549
- IPKTWYSAEQF [CD207_Y217] — lower, 0.615
- NTYEKYLGEEY [TF_Y669] — lower, 1.03
- RAIGFYSATSK [FAM120A_Y328_YF] — lower, 0.59
- SIIKDYFHRGT [GATM_Y203_A208T] — lower, 0.569
- RIVRKYKKVRF [F8_Y442_G439V] — lower, 0.87
- GLRFGYGVLGG [KRTAP20-2_Y15_YF] — lower, 0.434
- SVTFTYSPALN [TP53_Y126_C124Y_YF] — lower, 0.392
- IRCQGYSHRIL [MYO3B_Y993_R990C] — lower, 0.523
- IDSTPYGQWFE [RPS8_Y109_R110G_YF] — higher, 3.56
- SVQIVYKPVDL [MAPT_Y627] — lower, 0.464
- GSPPPYRRRKR [MBD1_Y403] — lower, 0.638
- EEGNPYFSSTR [MCCC2_Y520_A524T_YF] — lower, 1.14
- VHNLNYYKKTT [FGFR3_Y647_D646N] — lower, 0.487
- APGDAYGDAGY [SYP_Y250] — lower, 0.405
- GDYLSYREFHS [ERBIN_Y1107] — lower, 2.48
- GGCQEYTGAPF [NAXD_Y85_YF] — lower, 0.528
- HSDFQYSQRSQ [PKP2_Y168_YF] — lower, 0.747
- GAALAYGLDKS [HSPA9_Y230_A225G] — lower, 0.415
- GVFSRYFTTFD [CLCA1_Y661_YF] — lower, 0.481
- TSPKSYPSQKH [CAP2_Y316] — lower, 0.466
- PLDAEYFTLQI [TP53_Y327_G325A] — higher, 4.2
- VNYGAYINDFN [GLB1_Y488_K493N] — lower, 0.675

Target: EPHB2 (UniProt P29323)
Sequence (P29323 whole entry, looked up): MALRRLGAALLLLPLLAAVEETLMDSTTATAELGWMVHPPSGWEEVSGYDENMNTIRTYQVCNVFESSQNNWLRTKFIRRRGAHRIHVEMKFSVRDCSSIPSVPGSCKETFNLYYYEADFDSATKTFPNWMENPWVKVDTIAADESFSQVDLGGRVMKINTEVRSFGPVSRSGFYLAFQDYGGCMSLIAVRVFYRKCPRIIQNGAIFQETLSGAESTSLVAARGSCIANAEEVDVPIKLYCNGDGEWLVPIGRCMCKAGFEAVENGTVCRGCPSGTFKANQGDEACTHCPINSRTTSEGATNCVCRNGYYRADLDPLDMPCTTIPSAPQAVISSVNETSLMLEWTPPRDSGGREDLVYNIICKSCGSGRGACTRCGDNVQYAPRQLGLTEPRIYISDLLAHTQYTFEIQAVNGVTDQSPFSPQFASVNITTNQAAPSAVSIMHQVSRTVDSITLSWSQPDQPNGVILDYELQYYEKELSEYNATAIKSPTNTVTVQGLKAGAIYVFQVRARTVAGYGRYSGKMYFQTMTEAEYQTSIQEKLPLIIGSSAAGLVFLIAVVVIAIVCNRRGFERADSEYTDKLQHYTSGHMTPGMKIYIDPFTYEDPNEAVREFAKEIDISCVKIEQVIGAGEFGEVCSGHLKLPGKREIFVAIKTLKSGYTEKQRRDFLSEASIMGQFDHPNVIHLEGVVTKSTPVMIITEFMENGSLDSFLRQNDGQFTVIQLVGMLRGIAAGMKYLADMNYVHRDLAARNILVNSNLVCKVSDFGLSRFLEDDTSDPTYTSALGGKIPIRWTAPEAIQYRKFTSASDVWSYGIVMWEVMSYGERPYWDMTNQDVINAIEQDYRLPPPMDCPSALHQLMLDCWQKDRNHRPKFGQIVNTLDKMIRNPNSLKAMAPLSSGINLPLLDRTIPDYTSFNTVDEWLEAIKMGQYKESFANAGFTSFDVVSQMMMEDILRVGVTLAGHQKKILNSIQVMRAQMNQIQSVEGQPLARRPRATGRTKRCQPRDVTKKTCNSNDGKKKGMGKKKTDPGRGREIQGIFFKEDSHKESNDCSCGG
Assay: as above

Point of comparison: PLAVPYLDKPP [JMJD7_Y31], phosphorylation enrichment 0.608. Against it:
- QGGRRYMMIVD [GAA_Y438] — lower, 0.508
- CCKNRYDKDKP [THAP1_Y14_G9C] — lower, 0.28
- RPASQYPHQVP [ADAM12_Y895_P893S] — higher, 0.689
- KMKGDYYCYLA [YWHAG_Y130_R132C] — higher, 4.35
- HESEIYGKVCY [CSRP3_Y57_C58G] — higher, 0.968
- EESREYDRLYE [PIK3R1_Y463_K459E] — higher, 0.7
- WNRDKYAATTT [TRIM39_Y439_G436R] — lower, 0.401
- CEAMEYLESKQ [BTK_Y511] — higher, 0.811
- VLAAQYTTVGR [SGSH_Y240_D235V] — lower, 0.307
- IPKTWYSAEQF [CD207_Y217] — higher, 3.04
- NTYEKYLGEEY [TF_Y669] — higher, 0.74
- RAIGFYSATSK [FAM120A_Y328_YF] — higher, 0.81
- SIIKDYFHRGT [GATM_Y203_A208T] — lower, 0.604
- RIVRKYKKVRF [F8_Y442_G439V] — higher, 0.84
- GLRFGYGVLGG [KRTAP20-2_Y15_YF] — lower, 0.488
- SVTFTYSPALN [TP53_Y126_C124Y_YF] — lower, 0.554
- IRCQGYSHRIL [MYO3B_Y993_R990C] — lower, 0.558
- IDSTPYGQWFE [RPS8_Y109_R110G_YF] — higher, 0.722
- SVQIVYKPVDL [MAPT_Y627] — lower, 0.499
- GSPPPYRRRKR [MBD1_Y403] — higher, 0.625
- EEGNPYFSSTR [MCCC2_Y520_A524T_YF] — lower, 0.527
- PPGRSYSPYDY [TNS1_Y793] — higher, 1.07
- VHNLNYYKKTT [FGFR3_Y647_D646N] — lower, 0.449
- APGDAYGDAGY [SYP_Y250] — higher, 0.662
- GDYLSYREFHS [ERBIN_Y1107] — higher, 23.1
- GGCQEYTGAPF [NAXD_Y85_YF] — higher, 0.618
- HSDFQYSQRSQ [PKP2_Y168_YF] — higher, 0.782
- GAALAYGLDKS [HSPA9_Y230_A225G] — lower, 0.515
- GVFSRYFTTFD [CLCA1_Y661_YF] — lower, 0.512
- TSPKSYPSQKH [CAP2_Y316] — lower, 0.359
- PLDAEYFTLQI [TP53_Y327_G325A] — higher, 0.826
- VNYGAYINDFN [GLB1_Y488_K493N] — higher, 1.09

Target: FGFR1 (UniProt P11362)
Sequence (P11362 whole entry, looked up): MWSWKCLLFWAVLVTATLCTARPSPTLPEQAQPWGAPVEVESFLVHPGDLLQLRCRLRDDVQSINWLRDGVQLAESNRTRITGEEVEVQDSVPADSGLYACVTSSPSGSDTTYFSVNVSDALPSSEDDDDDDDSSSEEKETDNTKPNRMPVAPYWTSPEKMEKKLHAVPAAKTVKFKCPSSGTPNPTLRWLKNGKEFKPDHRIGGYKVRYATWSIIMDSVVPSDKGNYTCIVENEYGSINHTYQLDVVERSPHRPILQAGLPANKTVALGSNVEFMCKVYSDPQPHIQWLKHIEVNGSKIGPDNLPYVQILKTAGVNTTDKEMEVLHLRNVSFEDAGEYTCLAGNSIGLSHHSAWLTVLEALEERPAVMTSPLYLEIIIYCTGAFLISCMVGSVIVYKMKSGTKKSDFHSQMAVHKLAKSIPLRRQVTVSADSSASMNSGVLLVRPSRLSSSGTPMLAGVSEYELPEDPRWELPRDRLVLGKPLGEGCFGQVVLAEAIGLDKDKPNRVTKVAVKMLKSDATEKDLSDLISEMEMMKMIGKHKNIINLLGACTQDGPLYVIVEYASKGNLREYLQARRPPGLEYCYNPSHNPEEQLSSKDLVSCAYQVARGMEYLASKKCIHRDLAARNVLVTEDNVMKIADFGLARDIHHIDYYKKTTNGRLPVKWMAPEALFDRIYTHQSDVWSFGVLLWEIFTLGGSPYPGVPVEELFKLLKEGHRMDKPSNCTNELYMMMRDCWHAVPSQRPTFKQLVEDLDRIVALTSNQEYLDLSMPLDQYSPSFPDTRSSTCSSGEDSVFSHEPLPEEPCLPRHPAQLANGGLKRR
Assay: as above

Point of comparison: SVQIVYKPVDL [MAPT_Y627], phosphorylation enrichment 0.409. Against it:
- QGGRRYMMIVD [GAA_Y438] — higher, 0.413
- CCKNRYDKDKP [THAP1_Y14_G9C] — higher, 0.465
- RPASQYPHQVP [ADAM12_Y895_P893S] — higher, 0.476
- KMKGDYYCYLA [YWHAG_Y130_R132C] — higher, 11
- HESEIYGKVCY [CSRP3_Y57_C58G] — higher, 0.612
- EESREYDRLYE [PIK3R1_Y463_K459E] — higher, 0.708
- WNRDKYAATTT [TRIM39_Y439_G436R] — higher, 0.439
- CEAMEYLESKQ [BTK_Y511] — higher, 0.655
- VLAAQYTTVGR [SGSH_Y240_D235V] — lower, 0.352
- PLAVPYLDKPP [JMJD7_Y31] — higher, 0.504
- IPKTWYSAEQF [CD207_Y217] — higher, 0.494
- NTYEKYLGEEY [TF_Y669] — higher, 0.472
- RAIGFYSATSK [FAM120A_Y328_YF] — higher, 0.545
- SIIKDYFHRGT [GATM_Y203_A208T] — higher, 0.476
- RIVRKYKKVRF [F8_Y442_G439V] — higher, 0.647
- GLRFGYGVLGG [KRTAP20-2_Y15_YF] — lower, 0.358
- SVTFTYSPALN [TP53_Y126_C124Y_YF] — lower, 0.392
- IRCQGYSHRIL [MYO3B_Y993_R990C] — higher, 0.423
- IDSTPYGQWFE [RPS8_Y109_R110G_YF] — higher, 0.713
- GSPPPYRRRKR [MBD1_Y403] — higher, 0.464
- EEGNPYFSSTR [MCCC2_Y520_A524T_YF] — higher, 0.484
- PPGRSYSPYDY [TNS1_Y793] — higher, 0.863
- VHNLNYYKKTT [FGFR3_Y647_D646N] — higher, 0.447
- APGDAYGDAGY [SYP_Y250] — higher, 0.494
- GDYLSYREFHS [ERBIN_Y1107] — higher, 4.66
- GGCQEYTGAPF [NAXD_Y85_YF] — higher, 0.526
- HSDFQYSQRSQ [PKP2_Y168_YF] — higher, 0.931
- GAALAYGLDKS [HSPA9_Y230_A225G] — lower, 0.389
- GVFSRYFTTFD [CLCA1_Y661_YF] — higher, 0.468
- TSPKSYPSQKH [CAP2_Y316] — lower, 0.357
- PLDAEYFTLQI [TP53_Y327_G325A] — higher, 8.68
- VNYGAYINDFN [GLB1_Y488_K493N] — higher, 0.451
